Measurements reported in US20260167728A1 (published 2026).

molecular target: T1, huCD3e-mFc (human, UniProt P07766 23-126); experiment: Pool 3 screen
T1 construct: not shown: mFc, not described
T1 sequence (P07766 23-126): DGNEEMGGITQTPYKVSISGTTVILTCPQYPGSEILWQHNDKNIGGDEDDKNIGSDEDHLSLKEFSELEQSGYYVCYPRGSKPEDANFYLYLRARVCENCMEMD

Binder	Kd
AC3836 (CD3.332) (scFv, V domains shown, Pool 3 format (remarks)) VH: EVQLVESGGGIVQPGGSLRLSCAASGFTFNTYAMNWVRQAPGKGLEWVGRIRTKTNDYATYYADSVKGRFTISRDDSKNTAYLQMNSLKTEDTAVYYCVRHENFGNSYVSWFAHWGQGTLVTVSS VL: ELVVTQEPSLTVSPGGTVTLTCRSSNGAVTSSNYANWVQQKPGQAPRGLIGGTNKRAPGTPARFSGSLEGGKAALTLSGVQPEDEAVYYCALWYPNLWVFGGGTKLTVL	30.6 nM
AC3837 (CD3.333) (scFv, V domains shown, Pool 3 format (remarks)) VH: EVQLVESGGGIVQPGGSLRLSCAASGFTFNTYAMNWVRQAPGKGLEWVGRIRTKTNDYATYYADSVKGRFTISRDDSKNTAYLQMNSLKTEDTAVYYCVRHENFGNSYVSWFAHWGQGTLVTVSS VL: ELVVTQEPSLTVSPGGTVTLTCRSSNGAVTSSNYANWVQQKPGQAPRGLIGGTNKRAPGTPARFSGSLGGGKAALTLSGVQPEDEAVYYCALWYPNLWVFGGGTKLTVL	17.9 nM
AC3841 (CD3.337) (scFv, V domains shown, Pool 3 format (remarks)) VH: EVQLVESGGGIVQPGGSLRLSCAASGFTFNTYAMNWVRQAPGKGLEWVGRIRTKTNDYATYYADSVKGRFTISRDDSKNTLYLQMNSLKTEDTAVYYCVRHENFGNSYVSWFAHWGQGTLVTVSS VL: ELVVTQEPSLTVSPGGTVTLTCRSSNGAVTSSNYANWVQQKPGQAPRGLIGGTNKRAPGTPARFSGSLLGGKAALTLSGVQPEDEAVYYCALWYPNLWVFGGGTKLTVL	12.2 nM
AC3838 (CD3.334) (scFv, V domains shown, Pool 3 format (remarks)) VH: EVQLVESGGGIVQPGGSLRLSCAASGFTFNTYAMNWVRQAPGKGLEWVGRIRTKTNDYATYYADSVKGRFTISRDDSKNTAYLQMNSLKTEDTAVYYCVRHENFGNSYVSWFAHWGQGTLVTVSS VL: ELVVTQEPSLTVSPGGTVTLTCRSSNGAVTSSNYANWVQQKPGQAPRGLIGGTNKRAPGTPARFSGSLDGGKAALTLSGVQPEDEAVYYCALWYPNLWVFGGGTKLTVL	30.7 nM
AC3839 (CD3.335) (scFv, V domains shown, Pool 3 format (remarks)) VH: EVQLVESGGGIVQPGGSLRLSCAASGFTFNTYAMNWVRQAPGKGLEWVGRIRTKTNDYATYYADSVKGRFTISRDDSKNTAYLQMNSLKTEDTAVYYCVRHENFGNSYVSWFAHWGQGTLVTVSS VL: ELVVTQEPSLTVSPGGTVTLTCRSSNGAVTSSNYANWVQQKPGQAPRGLIGGTNKRAPGTPARFSGSLLGGKAGLTLSGVQPEDEAVYYCALWYPNLWVFGGGTKLTVL	24.5 nM
AC3840 (CD3.336) (scFv, V domains shown, Pool 3 format (remarks)) VH: EVQLVESGGGIVQPGGSLRLSCAASGFTFNTYAMNWVRQAPGKGLEWVGRIRTKTNDYATYYADSVKGRFTISRDDSKNTAYLQMNSLKTEDTAVYYCVRHENFGNSYVSWFAHWGQGTLVTVSS VL: ELVVTQEPSLTVSPGGTVTLTCRSSNGAVTSSNYANWVQQKPGQAPRGLIGGTNKRAPGTPARFSGSLLEGKAALTLSGVQPEDEAVYYCALWYPNLWVFGGGTKLTVL	32.6 nM

More lines, now with the values ahead:

Kd	Binder
17 nM	AC3842 (CD3.338) (scFv, V domains shown, Pool 3 format (remarks)) VH: EVQLVESGGGIVQPGGSLRLSCAASGFTFNTYAMNWVRQAPGKGLEWVGRIRTKTNDYATYYADSVKGRFTISRDDSKNTLYLQMNSLKTEDTAVYYCVRHENFGNSYVSWFAHWGQGTLVTVSS VL: ELVVTQEPSLTVSPGGTVTLTCRSSNGAVTSSNYANWVQQKPGQAPRGLIGGTNKRAPGTPARFSGSALGGKAALTLSGVQPEDEAVYYCALWYPNLWVFGGGTKLTVL
15.8 nM	AC3845 (CD3.341) (scFv, V domains shown, Pool 3 format (remarks)) VH: EVQLVESGGGIVQPGGSLRLSCAASGFTFNTYAMNWVRQAPGKGLEWVGRIRTKTNDYATYYADSVKGRFTISRDDSKNTLYLQMNSLKTEDTAVYYCVRHENFGNSYVSWFAHWGQGTLVTVSS VL: ELVVTQEPSLTVSPGGTVTLTCRSSNGAVTSSNYANWVQQKPGQAPRGLIGGTNKRAPGTPARFSGSLEGGKAALTLSGVQPEDEAVYYCALWYPNLWVFGGGTKLTVL
10.6 nM	AC3844 (CD3.340) (scFv, V domains shown, Pool 3 format (remarks)) VH: EVQLVESGGGIVQPGGSLRLSCAASGFTFNTYAMNWVRQAPGKGLEWVGRIRTKTNDYATYYADSVKGRFTISRDDSKNTLYLQMNSLKTEDTAVYYCVRHENFGNSYVSWFAHWGQGTLVTVSS VL: ELVVTQEPSLTVSPGGTVTLTCRSSNGAVTSSNYANWVQQKPGQAPRGLIGGTNKRAPGTPARFSGSLNGGKAALTLSGVQPEDEAVYYCALWYPNLWVFGGGTKLTVL
14.2 nM	AC3848 (CD3.344) (scFv, V domains shown, Pool 3 format (remarks)) VH: EVQLVESGGGIVQPGGSLRLSCAASGFTFNTYAMNWVRQAPGKGLEWVGRIRTKTNDYATYYADSVKGRFTISRDDSKNTLYLQMNSLKTEDTAVYYCVRHENFGNSYVSWFAHWGQGTLVTVSS VL: ELVVTQEPSLTVSPGGTVTLTCRSSNGAVTSSNYANWVQQKPGQAPRGLIGGTNKRAPGTPARFSGSLLGGKAGLTLSGVQPEDEAVYYCALWYPNLWVFGGGTKLTVL
14 nM	AC3847 (CD3.343) (scFv, V domains shown, Pool 3 format (remarks)) VH: EVQLVESGGGIVQPGGSLRLSCAASGFTFNTYAMNWVRQAPGKGLEWVGRIRTKTNDYATYYADSVKGRFTISRDDSKNTLYLQMNSLKTEDTAVYYCVRHENFGNSYVSWFAHWGQGTLVTVSS VL: ELVVTQEPSLTVSPGGTVTLTCRSSNGAVTSSNYANWVQQKPGQAPRGLIGGTNKRAPGTPARFSGSLDGGKAALTLSGVQPEDEAVYYCALWYPNLWVFGGGTKLTVL
9.99 nM	AC3846 (CD3.342) (scFv, V domains shown, Pool 3 format (remarks)) VH: EVQLVESGGGIVQPGGSLRLSCAASGFTFNTYAMNWVRQAPGKGLEWVGRIRTKTNDYATYYADSVKGRFTISRDDSKNTLYLQMNSLKTEDTAVYYCVRHENFGNSYVSWFAHWGQGTLVTVSS VL: ELVVTQEPSLTVSPGGTVTLTCRSSNGAVTSSNYANWVQQKPGQAPRGLIGGTNKRAPGTPARFSGSLGGGKAALTLSGVQPEDEAVYYCALWYPNLWVFGGGTKLTVL
18 nM	AC3849 (CD3.345) (scFv, V domains shown, Pool 3 format (remarks)) VH: EVQLVESGGGIVQPGGSLRLSCAASGFTFNTYAMNWVRQAPGKGLEWVGRIRTKTNDYATYYADSVKGRFTISRDDSKNTLYLQMNSLKTEDTAVYYCVRHENFGNSYVSWFAHWGQGTLVTVSS VL: ELVVTQEPSLTVSPGGTVTLTCRSSNGAVTSSNYANWVQQKPGQAPRGLIGGTNKRAPGTPARFSGSLLEGKAALTLSGVQPEDEAVYYCALWYPNLWVFGGGTKLTVL
15.4 nM	AC3843 (CD3.339) (scFv, V domains shown, Pool 3 format (remarks)) VH: EVQLVESGGGIVQPGGSLRLSCAASGFTFNTYAMNWVRQAPGKGLEWVGRIRTKTNDYATYYADSVKGRFTISRDDSKNTLYLQMNSLKTEDTAVYYCVRHENFGNSYVSWFAHWGQGTLVTVSS VL: ELVVTQEPSLTVSPGGTVTLTCRSSNGAVTSSNYANWVQQKPGQAPRGLIGGTNKRAPGTPARFSGSGLGGKAALTLSGVQPEDEAVYYCALWYPNLWVFGGGTKLTVL
12.3 nM	AC3857 (CD3.353) (scFv, V domains shown, Pool 3 format (remarks)) VH: EVQLVESGGGIVQPGGSLRLSCAASGFTFSTYAMNWVRQAPGKGLEWVGRIRTKTNNYATYYADSVKGRFTISRDDSKNTVYLQMNSLKTEDTAVYYCVRHENFGNSYVSWFAHWGQGTLVTVSS VL: ELVVTQEPSLTVSPGGTVTLTCRSSNGAVTSSNYANWVQQKPGQAPRGLIGGTNKRAPGTPARFSGSLLGGKAGLTLSGVQPEDEAVYYCALWYPNLWVFGGGTKLTVL
